According to patent publication US20110111406A1 (published 2011):
Substitutions are numbered along the chain they refer to. Like-named read-outs stand apart in the source and are kept apart here. Blank lines part the entries; values can stand above or below the binder they belong to.

What was measured:
[1] = molecular target: T1, recombinant soluble human IL-6 receptor (SR344) (human, UniProt P08887 20-344); assay: Biacore T100, antibody captured on protein A/G, SR344 as analyte, 37C; ratio of kd at pH 5.8 to pH 7.4
T1 construct: In the 'membrane-type IL-6 receptor' Biacore assays the same SR344 was biotinylated and immobilized via streptavidin; also called soluble IL-6 receptor; membrane-type IL-6 receptor (as biotinylated SR344 immobilized on the sensor chip)
T1 sequence (looked up): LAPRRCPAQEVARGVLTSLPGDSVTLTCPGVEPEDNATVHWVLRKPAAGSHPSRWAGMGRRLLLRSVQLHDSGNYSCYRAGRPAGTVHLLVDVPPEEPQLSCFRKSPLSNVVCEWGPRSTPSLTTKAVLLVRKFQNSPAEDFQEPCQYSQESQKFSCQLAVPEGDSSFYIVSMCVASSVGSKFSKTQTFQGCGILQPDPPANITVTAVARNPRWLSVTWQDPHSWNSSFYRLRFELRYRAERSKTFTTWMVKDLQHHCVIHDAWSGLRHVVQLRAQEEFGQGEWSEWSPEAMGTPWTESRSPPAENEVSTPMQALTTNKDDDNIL
Method: (§1) Kinetic analysis of antigen-antibody reactions at pH 7.4 and pH 5.8 was carried out using Biacore T100 (GE Healthcare) for the four types of antibodies prepared: WT-IgG1, H54/L28-IgG1, H170/L82-IgG1, and Fv4-IgG1(buffer: 10 mM MES (pH 7.4 or pH 5.8), 150 mM NaCl, 0.05% Surfactant-P20). The antibodies were bound to a sensor chip on which recomb-protein A/G (Pierce) was immobilized by amine coupling, and SR344 adjusted to an appropriate concentration was injected therein as an analyte. The association with and dissociation from SR344 of each type of antibody were observed on a real-time basis. All the measurements were carried out at 37° C. Association rate constants kₐ (1/Ms) and dissociation rate constants kd (1/s) were calculated using Biacore T100 Evaluation Software (GE Healthcare), and dissociation constants KD (M) were calculated based on those values (Table 17).

[2] = molecular target: T1, recombinant soluble human IL-6 receptor …; assay: Biacore T100, biotinylated SR344 immobilized via streptavidin (membrane-type IL-6 receptor model), antibody as analyte; ratio of kd at pH 5.8 to pH 7.4
Method: (§2) Binding to the membrane-type IL-6 receptor was evaluated by evaluating binding to the IL-6 receptor immobilized on a sensor chip. SR344 was biotinylated in accordance with a method known among persons with ordinary skill in the art, and the biotinylated SR344 was immobilized on the sensor chip via streptavidin using the affinity between streptavidin and biotin. All the measurements were carried out at 37° C. The mobile phase buffer was 10 mM MES (pH 5.8), 150 mM NaCl and 0.05% Tween 20.
(§3) The pH-dependently-binding clones were injected under the condition of pH 7.4 to allow them to bind to SR344, and then, the pH-dependent dissociation of each clone at the pH of the mobile phase, pH 5.8, was observed. The results are shown in FIG. 21 (results for Fv1-M71, Fv1-M73, Fv3-M71, and Fv3-M73 are shown in FIG. 21, while results for other clones are shown in FIGS. 17 and 19). Analyses were carried out in the same manner as in Example 10 and the pH dependencies of the dissociation rate constants of all of the eleven types of clones are shown in Table 12.

[3] = molecular target: T1, recombinant soluble human IL-6 receptor …; assay: Biacore T100, antibody captured on protein A/G, SR344 as analyte, 37C; ratio of KD at pH 5.8 to pH 7.4
Method: as §1

[4] = molecular target: T1, recombinant soluble human IL-6 receptor …; assay: Biacore T100, biotinylated SR344 immobilized via streptavidin (membrane-type IL-6 receptor model), antibody as analyte; ratio of kd at pH 5.8 to pH 7.4; remark: listed apart in the source
Method: as §2, §3

[5] = molecular target: T1, recombinant soluble human IL-6 receptor …; assay: Biacore T100, antibody captured on protein A/G, SR344 as analyte, 37C; ratio of KD at pH 5.8 to pH 7.4; remark: listed apart in the source
Method: (§4) Kinetic analyses of antigen-antibody reactions at pH 5.8 and pH 7.4 were carried out using Biacore T100 (GE Healthcare) on the four antibodies: humanized PM1 antibody (WT) and H3pI/L73, CLH5/L73, and H170/L82 produced in Examples 2 and 4 (buffer: 10 mM MES (pH 7.4 or pH 5.8), 150 mM NaCl, and 0.05% Tween 20). Various antibodies were bound onto a sensor chip immobilized with recomb-protein A/G (Pierce) by amine coupling. SR344 adjusted to concentrations of 9.8 to 400 nM was injected to the chip as an analyte. […] All the measurements were carried out at 37° C. Association rate constants kₐ (1/Ms) and dissociation rate constants kd (1/s) were calculated using Biacore T100 Evaluation Software (GE Healthcare), and dissociation constants KD (M) were calculated on the basis of those values (Table 5). Moreover, the ratio of the affinities at pH 5.8 and pH 7.4 were calculated for each clone to evaluate pH-dependent binding. All the measurements were carried out at 37° C.

[6] = molecular target: T1, recombinant soluble human IL-6 receptor …; assay: Biacore T100, SR344 as analyte; KD(pH5.8)/KD(pH7.4) compared with WT
Method: as §4

[7] = molecular target: T1, recombinant soluble human IL-6 receptor …; assay: Biacore T100, integrated RU of SR344 bound over ten cycles of pH 7.4 binding and pH 5.8 exposure, 37C
Text: Biacore (GE Healthcare) was used to evaluate that the antibodies binding at pH 7.4 and dissociating at pH 5.8 were able to bind to the antigen multiple times. The antibody to be evaluated was bound to a recomb-protein A/G (Pierce)-immobilized sensor chip by the amine coupling method, and a mobile phase of pH 7.4 was allowed to flow (step 1). SR344 solution adjusted to pH 7.4 was then allowed to flow as an analyte to bind SR344 to the antibody at pH 7.4 (step 2). This binding at pH 7.4 mimics the antigen binding in plasma. Subsequently, buffer adjusted to pH 5.8 alone (not containing SR344) was added as an analyte to expose the antigen bound to the antibody to acidic conditions (step 3). This dissociation at pH 5.8 mimics the binding state of antigen-antibody complexes in endosomes. Subsequently, step 2 was repeated. This mimics the rebinding of antibody that has been returned to plasma by FcRn to a new antigen. Subsequently, […] was repeated to expose the antibody-antigen complex to acidic conditions.
The produced pH-dependent binding clones described above were analyzed using Biacore T100 (GE Healthcare) for their ability to bind to the antigen SR344 multipe times at pH 5.8 and pH 7.4. More specifically, the analysis was carried out as follows. All the measurements were carried out at 37° C. […]

human IL-6 (Toray) [8] = molecular target: T2, human IL-6 (Toray) (human, UniProt P05231 30-212); assay: Biacore T100, antibody captured on protein A/G, human IL-6 as analyte, 37C; ratio of KD at pH 5.5 to pH 7.4
T2 construct: also called human interleukin-6
Method: (§5) Kinetic analysis of antigen-antibody reactions at pH 5.5 and pH 7.4 was carried out using Biacore T100 (GE Healthcare) for the three types of antibodies prepared as mentioned above: Anti-IL6 wild type, Anti-IL6 clone 1, and Anti-IL-6 clone 2 (buffer: DPBS(−) (pH 7.4 or pH 5.5), 150 mM NaCl). The antibodies were bound to a sensor chip on which recomb-protein A/G (Pierce) was immobilized by amine coupling, and then human IL-6 (Toray) adjusted to an appropriate concentration was injected on the chip as an analyte. All the measurements were carried out at 37° C. Association rate constants kₐ (1/Ms) and dissociation rate constants kd (1/s) were calculated using Biacore T100 Evaluation Software (GE Healthcare), and dissociation constants KD (M) were calculated based on those values (Table 14). Furthermore, the ratio of affinity at pH 5.5 and pH 7.4 was calculated for each clone to evaluate the pH-dependent binding.

human IL-6 (Toray) [9] = molecular target: T2, human IL-6 (Toray); assay: Biacore T100, human IL-6 as analyte; KD(pH 5.5)/KD(pH 7.4) compared with Anti-IL6 wild type
Method: as §5

- kd(pH 5.8)/kd(pH 7.4) [1]: 2.9
- kd(pH 5.8)/kd(pH 7.4) [2]: 1
- KD(pH5.8)/KD(pH7.4) [3]: 1.6
- kd(pH 5.8)/kd(pH 7.4) [4]: 1
- KD(pH5.8)/KD(pH7.4) [5]: 2.4
B1: humanized PM1 antibody (wild type, WT) (antibody, human IgG1, kappa, V domains shown)
VH: QVQLQESGPGLVRPSQTLSLTCTVSGYSITSDHAWSWVRQPPGRGLEWIGYISYSGITTYNPSLKSRVTMLRDTSKNQFSLRLSSVTAADTAVYYCARSLARTTAMDYWGQGSLVTVSS
VL: DIQMTQSPSSLSASVGDRVTITCRASQDISSYLNWYQQKPGKAPKLLIYYTSRLHSGVPSRFSGSGSGTDFTFTISSLQPEDIATYYCQQGNTLPYTFGQGTKVEIKR
notes: Tested as IgG1; also called WT-IgG1; H(WT)/L(WT)

- kd(pH 5.8)/kd(pH 7.4) [2]: 2.59
- kd(pH 5.8)/kd(pH 7.4) [4]: 2.59
- KD(pH5.8)/KD(pH7.4) [5]: 41.3
- pH-dependent binding (affinity ratio) relative to WT [6]: 15 times
B2: H3pI/L73 (antibody, IgG1, V domains shown)
VH: QVQLQESGPGLVKPSETLSLTCAVSGHSISHDHAHSWVRQPPGEGLEWIGYISYSGITNYNPSLKGRVTISRDTSKNQFSLKLSSVTAADTAAYYCARSLARTTAMDYWGEGTLVTVSS
VL: DIQMTQSPSSLSASVGDSVTITCQASQHISSHLNWYQQKPGKAPELLIYYGSHLHSGVPSRFSGSGSGTDFTFTISSLEAEDAATYYCGQGNRLPYTFGQGTKVEIE
notes: antibody expressed as IgG1; also called H3pI/L73-IgG1; H3pl/L73

- KD(pH5.8)/KD(pH7.4) [5]: 66.1
- total amount of antigen bound over ten cycles relative to WT [7]: ~4 times
- pH-dependent binding (affinity ratio) relative to WT [6]: 15 times
B3: CLH5/L73 (antibody, IgG1, V domains shown)
VH: B2 VH with H27Y, H35W, Y51H, S63H, S99F, T103I, M106H, Y108H
VL: B2 VL

- kd(pH 5.8)/kd(pH 7.4) [1]: 11.4
- KD(pH5.8)/KD(pH7.4) [3]: 61.9
- KD(pH5.8)/KD(pH7.4) [5]: 394
- total amount of antigen bound over ten cycles relative to WT [7]: ~4 times
- pH-dependent binding (affinity ratio) relative to WT [6]: 15 times
B4: H170/L82 (antibody, IgG1, V domains shown)
VH: B2 VH with D32H, N59H, S63H, S99V, T103I, Y108H
VL: B2 VL with H28D
notes: expressed and purified as IgG (IgG1); also called H170/L82-IgG1

- KD(pH 5.5)/KD(pH 7.4) (human IL-6 (Toray) [8]): 0.8
B5: Anti-IL6 wild type (antibody, human IgG1, kappa, V domains shown)
VH: EVQLVESGGKLLKPGGSLKLSCAASGFTFSSFAMSWFRQSPEKRLEWVAEISSGGSYTYYPDTVTGRFTISRDNAKNTLYLEMSSLRSEDTAMYYCARGLWGYYALDYWGQGTSVTVSS
VL: QIVLIQSPAIMSASPGEKVTMTCSASSSVSYMYWYQQKPGSSPRLLIYDTSNLASGVPVRFSGSGSGTSYSLTISRMEAEDAATYYCQQWSGYPYTFGGGTKLEIKR
notes: also called WT (anti-IL-6 antibody of WO 2004/039826)

- KD(pH 5.5)/KD(pH 7.4) (human IL-6 (Toray) [8]): 13.5
- pH-dependent binding ability relative to WT (human IL-6 (Toray) [9]): 10 times
B6: Anti-IL-6 clone 2 (antibody, human IgG1, kappa, V domains shown)
VH: B5 VH with F32H, Y60H, D62H, Y103H
VL: B5 VL with N52H, L53H, Q89H, Y93H
notes: H chain (c1) and L chain (c2)

- KD(pH 5.5)/KD(pH 7.4) (human IL-6 (Toray) [8]): 10.3
- pH-dependent binding ability relative to WT (human IL-6 (Toray) [9]): 10 times
B7: Anti-IL6 clone 1 (antibody, human IgG1, kappa, V domains shown)
VH: B5 VH with F32H, Y60H, D62H, Y103H
VL: B5 VL with L53H, Q89H, Y93H
notes: H chain (c1) and L chain (c1)
